Results: the supplement of paper PMC10567573

B1: TRIM14 (parent)
chain: YARTPTLDPDTMHARLRLSADRLT

Variants of: B1
Test: protein stability index of a GFP-peptide fusion (GPS, HEK-293T) (PSI 1-6); higher = more stable
Conditions: c terminus: a fixed tail appended
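Further: lentivirally expressed fusions sorted by FACS into six bins by GFP to DsRed ratio, PSI derived from sequencing read proportions per bin multiplied by bin number.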

| Variant | protein stability index |
| --- | --- |
| YKRTPTLDPDTMHARLRLSADRLT | 2.98 |
| YLRTPTLDPDTMHARLRLSADRLT | 2.77 |
| YMRTPTLDPDTMHARLRLSADRLT | 2.69 |
| YNRTPTLDPDTMHARLRLSADRLT | 3.09 |
| YPRTPTLDPDTMHARLRLSADRLT | 3.9 |
| YQRTPTLDPDTMHARLRLSADRLT | 2.71 |
| YRRTPTLDPDTMHARLRLSADRLT | 2.85 |
| YSRTPTLDPDTMHARLRLSADRLT | 2.44 |
| YTRTPTLDPDTMHARLRLSADRLT | 2.46 |
| YVRTPTLDPDTMHARLRLSADRLT | 1.89 |
| YWRTPTLDPDTMHARLRLSADRLT | 2.5 |
| YYRTPTLDPDTMHARLRLSADRLT | 2.9 |
| YAATPTLDPDTMHARLRLSADRLT | 2.66 |
| YACTPTLDPDTMHARLRLSADRLT | 3.02 |
| YADTPTLDPDTMHARLRLSADRLT | 3.8 |
| YAETPTLDPDTMHARLRLSADRLT | 2.18 |
| YAFTPTLDPDTMHARLRLSADRLT | 1.85 |
| YAGTPTLDPDTMHARLRLSADRLT | 2.78 |
| YAHTPTLDPDTMHARLRLSADRLT | 3.12 |
| YAITPTLDPDTMHARLRLSADRLT | 2.57 |
| YAKTPTLDPDTMHARLRLSADRLT | 2.87 |
| YALTPTLDPDTMHARLRLSADRLT | 3.34 |
| YAMTPTLDPDTMHARLRLSADRLT | 2.53 |
| YANTPTLDPDTMHARLRLSADRLT | 3.14 |

| Variant | protein stability index |
| --- | --- |
| YAPTPTLDPDTMHARLRLSADRLT | 1.76 |
| YAQTPTLDPDTMHARLRLSADRLT | 3.81 |
| YASTPTLDPDTMHARLRLSADRLT | 2.86 |
| YATTPTLDPDTMHARLRLSADRLT | 3.05 |
| YAVTPTLDPDTMHARLRLSADRLT | 3 |
| YAWTPTLDPDTMHARLRLSADRLT | 1.92 |
| YAYTPTLDPDTMHARLRLSADRLT | 1.83 |
| YARAPTLDPDTMHARLRLSADRLT | 2.37 |
| YARCPTLDPDTMHARLRLSADRLT | 1.95 |
| YARDPTLDPDTMHARLRLSADRLT | 2.6 |
| YAREPTLDPDTMHARLRLSADRLT | 4.06 |
| YARFPTLDPDTMHARLRLSADRLT | 2.21 |
| YARGPTLDPDTMHARLRLSADRLT | 2.21 |
| YARHPTLDPDTMHARLRLSADRLT | 2.67 |
| YARIPTLDPDTMHARLRLSADRLT | 3.04 |
| YARKPTLDPDTMHARLRLSADRLT | 2.61 |
| YARLPTLDPDTMHARLRLSADRLT | 2.16 |
| YARMPTLDPDTMHARLRLSADRLT | 2.45 |
| YARNPTLDPDTMHARLRLSADRLT | 3.1 |
| YARPPTLDPDTMHARLRLSADRLT | 2.95 |
| YARQPTLDPDTMHARLRLSADRLT | 2.84 |
| YARRPTLDPDTMHARLRLSADRLT | 3.13 |
| YARSPTLDPDTMHARLRLSADRLT | 2.47 |
| YARVPTLDPDTMHARLRLSADRLT | 2.78 |

| Variant | protein stability index |
| --- | --- |
| YARWPTLDPDTMHARLRLSADRLT | 1.17 |
| YARYPTLDPDTMHARLRLSADRLT | 2.32 |
| YARTATLDPDTMHARLRLSADRLT | 2.08 |
| YARTCTLDPDTMHARLRLSADRLT | 2.18 |
| YARTDTLDPDTMHARLRLSADRLT | 3.57 |
| YARTETLDPDTMHARLRLSADRLT | 2.62 |
| YARTFTLDPDTMHARLRLSADRLT | 2.06 |
| YARTGTLDPDTMHARLRLSADRLT | 2.88 |
| YARTHTLDPDTMHARLRLSADRLT | 2.84 |
| YARTITLDPDTMHARLRLSADRLT | 2.17 |
| YARTKTLDPDTMHARLRLSADRLT | 3.12 |
| YARTLTLDPDTMHARLRLSADRLT | 2.34 |
| YARTMTLDPDTMHARLRLSADRLT | 1.54 |
| YARTNTLDPDTMHARLRLSADRLT | 2 |
| YARTQTLDPDTMHARLRLSADRLT | 2.56 |
| YARTRTLDPDTMHARLRLSADRLT | 1.98 |
| YARTSTLDPDTMHARLRLSADRLT | 2.16 |
| YARTVTLDPDTMHARLRLSADRLT | 1.96 |
| YARTWTLDPDTMHARLRLSADRLT | 2.37 |
| YARTYTLDPDTMHARLRLSADRLT | 2.11 |
| YARTPALDPDTMHARLRLSADRLT | 2.64 |
| YARTPCLDPDTMHARLRLSADRLT | 2.34 |
| YARTPDLDPDTMHARLRLSADRLT | 3.4 |
| YARTPELDPDTMHARLRLSADRLT | 2.94 |

| Variant | protein stability index |
| --- | --- |
| YARTPFLDPDTMHARLRLSADRLT | 2.24 |
| YARTPGLDPDTMHARLRLSADRLT | 2.37 |
| YARTPHLDPDTMHARLRLSADRLT | 2.44 |
| YARTPILDPDTMHARLRLSADRLT | 2.1 |
| YARTPKLDPDTMHARLRLSADRLT | 2.33 |
| YARTPLLDPDTMHARLRLSADRLT | 2.56 |
| YARTPMLDPDTMHARLRLSADRLT | 2.71 |
| YARTPNLDPDTMHARLRLSADRLT | 1.96 |
| YARTPPLDPDTMHARLRLSADRLT | 2.3 |
| YARTPQLDPDTMHARLRLSADRLT | 2.33 |
| YARTPRLDPDTMHARLRLSADRLT | 1.94 |
| YARTPSLDPDTMHARLRLSADRLT | 2.28 |
| YARTPVLDPDTMHARLRLSADRLT | 2.22 |
| YARTPWLDPDTMHARLRLSADRLT | 2.79 |
| YARTPYLDPDTMHARLRLSADRLT | 1.94 |
| YARTPTADPDTMHARLRLSADRLT | 2.75 |
| YARTPTCDPDTMHARLRLSADRLT | 2.1 |
| YARTPTDDPDTMHARLRLSADRLT | 3.54 |
| YARTPTEDPDTMHARLRLSADRLT | 3.65 |
| YARTPTFDPDTMHARLRLSADRLT | 2.54 |
| YARTPTGDPDTMHARLRLSADRLT | 2.44 |
| YARTPTHDPDTMHARLRLSADRLT | 2.65 |
| YARTPTIDPDTMHARLRLSADRLT | 1.94 |
| YARTPTKDPDTMHARLRLSADRLT | 2.56 |

| Variant | protein stability index |
| --- | --- |
| YARTPTMDPDTMHARLRLSADRLT | 2.81 |
| YARTPTNDPDTMHARLRLSADRLT | 2.54 |
| YARTPTQDPDTMHARLRLSADRLT | 2.81 |
| YARTPTRDPDTMHARLRLSADRLT | 2.76 |
| YARTPTSDPDTMHARLRLSADRLT | 2.98 |
| YARTPTTDPDTMHARLRLSADRLT | 2.46 |
| YARTPTVDPDTMHARLRLSADRLT | 3.33 |
| YARTPTWDPDTMHARLRLSADRLT | 2.31 |
| YARTPTYDPDTMHARLRLSADRLT | 2.63 |
| YARTPTLAPDTMHARLRLSADRLT | 2.15 |
| YARTPTLCPDTMHARLRLSADRLT | 2.1 |
| YARTPTLEPDTMHARLRLSADRLT | 2.26 |
| YARTPTLFPDTMHARLRLSADRLT | 2.5 |
| YARTPTLGPDTMHARLRLSADRLT | 2.18 |
| YARTPTLHPDTMHARLRLSADRLT | 1.87 |
| YARTPTLIPDTMHARLRLSADRLT | 2.24 |
| YARTPTLKPDTMHARLRLSADRLT | 2.95 |
| YARTPTLLPDTMHARLRLSADRLT | 2.41 |
| YARTPTLMPDTMHARLRLSADRLT | 2.22 |
| YARTPTLNPDTMHARLRLSADRLT | 2.58 |
| YARTPTLPPDTMHARLRLSADRLT | 2.41 |
| YARTPTLQPDTMHARLRLSADRLT | 2.52 |
| YARTPTLRPDTMHARLRLSADRLT | 1.98 |
| YARTPTLSPDTMHARLRLSADRLT | 2.5 |

| Variant | protein stability index |
| --- | --- |
| YARTPTLTPDTMHARLRLSADRLT | 2.45 |
| YARTPTLVPDTMHARLRLSADRLT | 2.78 |
| YARTPTLWPDTMHARLRLSADRLT | 2.08 |
| YARTPTLYPDTMHARLRLSADRLT | 1.8 |
| YARTPTLDADTMHARLRLSADRLT | 2.82 |
| YARTPTLDCDTMHARLRLSADRLT | 2.1 |
| YARTPTLDDDTMHARLRLSADRLT | 2.98 |
| YARTPTLDEDTMHARLRLSADRLT | 2.56 |
| YARTPTLDFDTMHARLRLSADRLT | 2.21 |
| YARTPTLDGDTMHARLRLSADRLT | 3.11 |
| YARTPTLDHDTMHARLRLSADRLT | 2.92 |
| YARTPTLDIDTMHARLRLSADRLT | 2.3 |
| YARTPTLDKDTMHARLRLSADRLT | 3.15 |
| YARTPTLDLDTMHARLRLSADRLT | 2.1 |
| YARTPTLDMDTMHARLRLSADRLT | 3.07 |
| YARTPTLDNDTMHARLRLSADRLT | 3.11 |
| YARTPTLDQDTMHARLRLSADRLT | 2.56 |
| YARTPTLDRDTMHARLRLSADRLT | 2.96 |
| YARTPTLDSDTMHARLRLSADRLT | 2.04 |
| YARTPTLDTDTMHARLRLSADRLT | 2.58 |
| YARTPTLDVDTMHARLRLSADRLT | 2.41 |
| YARTPTLDWDTMHARLRLSADRLT | 2.17 |
| YARTPTLDYDTMHARLRLSADRLT | 2.22 |
| YARTPTLDPATMHARLRLSADRLT | 1.98 |

| Variant | protein stability index |
| --- | --- |
| YARTPTLDPCTMHARLRLSADRLT | 2.22 |
| YARTPTLDPETMHARLRLSADRLT | 2.66 |
| YARTPTLDPFTMHARLRLSADRLT | 1.64 |
| YARTPTLDPGTMHARLRLSADRLT | 2.48 |
| YARTPTLDPHTMHARLRLSADRLT | 2.29 |
| YARTPTLDPITMHARLRLSADRLT | 2 |
| YARTPTLDPKTMHARLRLSADRLT | 3.05 |
| YARTPTLDPLTMHARLRLSADRLT | 2.05 |
| YARTPTLDPMTMHARLRLSADRLT | 2.4 |
| YARTPTLDPNTMHARLRLSADRLT | 3.23 |
| YARTPTLDPPTMHARLRLSADRLT | 2.31 |
| YARTPTLDPQTMHARLRLSADRLT | 2.56 |
| YARTPTLDPSTMHARLRLSADRLT | 3.77 |
| YARTPTLDPTTMHARLRLSADRLT | 2.66 |
| YARTPTLDPVTMHARLRLSADRLT | 2.78 |
| YARTPTLDPWTMHARLRLSADRLT | 3.31 |
| YARTPTLDPYTMHARLRLSADRLT | 2.34 |
| YARTPTLDPDAMHARLRLSADRLT | 2.68 |
| YARTPTLDPDCMHARLRLSADRLT | 2.94 |
| YARTPTLDPDDMHARLRLSADRLT | 3.07 |
| YARTPTLDPDEMHARLRLSADRLT | 3.46 |
| YARTPTLDPDFMHARLRLSADRLT | 2.04 |
| YARTPTLDPDGMHARLRLSADRLT | 2.39 |
| YARTPTLDPDHMHARLRLSADRLT | 2.12 |

| Variant | protein stability index |
| --- | --- |
| YARTPTLDPDIMHARLRLSADRLT | 2.26 |
| YARTPTLDPDKMHARLRLSADRLT | 3.29 |
| YARTPTLDPDLMHARLRLSADRLT | 2.27 |
| YARTPTLDPDMMHARLRLSADRLT | 2.12 |
| YARTPTLDPDNMHARLRLSADRLT | 2.45 |
| YARTPTLDPDPMHARLRLSADRLT | 2.79 |
| YARTPTLDPDQMHARLRLSADRLT | 2.81 |
| YARTPTLDPDRMHARLRLSADRLT | 3.65 |
| YARTPTLDPDSMHARLRLSADRLT | 2.66 |
| YARTPTLDPDVMHARLRLSADRLT | 2.36 |
| YARTPTLDPDWMHARLRLSADRLT | 2.15 |
| YARTPTLDPDYMHARLRLSADRLT | 2.9 |
| YARTPTLDPDTAHARLRLSADRLT | 2.56 |
| YARTPTLDPDTCHARLRLSADRLT | 2.34 |
| YARTPTLDPDTDHARLRLSADRLT | 3.94 |
| YARTPTLDPDTEHARLRLSADRLT | 3.6 |
| YARTPTLDPDTFHARLRLSADRLT | 2.01 |
| YARTPTLDPDTGHARLRLSADRLT | 2.89 |
| YARTPTLDPDTHHARLRLSADRLT | 3.13 |
| YARTPTLDPDTIHARLRLSADRLT | 2.62 |
